Data taken from paper PMC3401449 (Nucleic Acids Research, 2012).

Target: T1, His-tagged, wild-type DNA polymerase IV (Pol IV) (Escherichia coli, UniProt Q47155 1-351)
T1 sequence (looked up): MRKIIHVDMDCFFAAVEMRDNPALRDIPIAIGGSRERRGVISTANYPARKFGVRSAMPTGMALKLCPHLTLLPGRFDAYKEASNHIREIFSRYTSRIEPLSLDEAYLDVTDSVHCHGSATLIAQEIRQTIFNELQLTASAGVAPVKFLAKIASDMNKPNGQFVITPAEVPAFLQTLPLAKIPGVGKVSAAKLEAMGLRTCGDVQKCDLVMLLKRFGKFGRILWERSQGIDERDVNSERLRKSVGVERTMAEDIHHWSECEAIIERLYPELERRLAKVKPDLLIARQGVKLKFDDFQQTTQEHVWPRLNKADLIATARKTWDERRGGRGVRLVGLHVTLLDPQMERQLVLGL
Assay: pull-down

binding result: binds
B1: SSB-Ct peptide (Trp–Met–Asp–Phe–Asp–Asp–Asp–Ile–Pro–Phe) (peptide)
peptide: WMDFDDDIPF
